Results: the supplement of paper PMC10065799, “High-throughput profiling of sequence recognition by tyrosine kinases and SH2 domains using bacterial peptide display” (eLife, 2023)

Legend:
AncSZ = assay: phosphorylation enrichment, bacterial display (enrichment ratio); higher = better substrate or ligand; peptides without Tyr show the background
EPHB1 = EPHB1 (UniProt P54762); assay: as above
EPHB2 = EPHB2 (UniProt P29323); assay: as above
FGFR1 = FGFR1 (UniProt P11362); assay: as above
FGFR3 = FGFR3 (UniProt P22607); assay: as above
Chain of FGFR3 (P22607 whole entry, looked up): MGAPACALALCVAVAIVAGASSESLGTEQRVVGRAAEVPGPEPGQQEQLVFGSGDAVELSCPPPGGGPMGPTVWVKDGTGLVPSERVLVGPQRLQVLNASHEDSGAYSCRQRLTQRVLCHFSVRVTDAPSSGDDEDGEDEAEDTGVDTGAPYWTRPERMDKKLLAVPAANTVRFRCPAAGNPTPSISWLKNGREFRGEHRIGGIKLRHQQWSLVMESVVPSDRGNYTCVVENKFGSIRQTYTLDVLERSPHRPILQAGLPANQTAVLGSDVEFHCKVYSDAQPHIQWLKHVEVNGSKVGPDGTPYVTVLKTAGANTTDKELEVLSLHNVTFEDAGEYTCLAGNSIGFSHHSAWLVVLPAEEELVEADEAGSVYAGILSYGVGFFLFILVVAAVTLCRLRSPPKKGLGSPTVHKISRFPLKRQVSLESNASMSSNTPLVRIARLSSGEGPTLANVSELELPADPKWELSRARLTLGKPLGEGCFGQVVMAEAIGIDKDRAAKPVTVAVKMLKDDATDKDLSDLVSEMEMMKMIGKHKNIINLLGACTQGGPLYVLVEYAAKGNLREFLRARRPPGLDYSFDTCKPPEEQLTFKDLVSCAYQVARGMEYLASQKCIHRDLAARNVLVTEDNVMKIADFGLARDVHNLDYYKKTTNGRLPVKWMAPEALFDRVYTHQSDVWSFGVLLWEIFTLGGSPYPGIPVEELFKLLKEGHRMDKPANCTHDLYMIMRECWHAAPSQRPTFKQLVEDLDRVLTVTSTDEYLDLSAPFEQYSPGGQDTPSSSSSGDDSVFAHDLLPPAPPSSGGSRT

Fer (mouse) = assay: as above
Fes = Fes (UniProt P07332); assay: as above
Chain of Fes (P07332 whole entry, looked up): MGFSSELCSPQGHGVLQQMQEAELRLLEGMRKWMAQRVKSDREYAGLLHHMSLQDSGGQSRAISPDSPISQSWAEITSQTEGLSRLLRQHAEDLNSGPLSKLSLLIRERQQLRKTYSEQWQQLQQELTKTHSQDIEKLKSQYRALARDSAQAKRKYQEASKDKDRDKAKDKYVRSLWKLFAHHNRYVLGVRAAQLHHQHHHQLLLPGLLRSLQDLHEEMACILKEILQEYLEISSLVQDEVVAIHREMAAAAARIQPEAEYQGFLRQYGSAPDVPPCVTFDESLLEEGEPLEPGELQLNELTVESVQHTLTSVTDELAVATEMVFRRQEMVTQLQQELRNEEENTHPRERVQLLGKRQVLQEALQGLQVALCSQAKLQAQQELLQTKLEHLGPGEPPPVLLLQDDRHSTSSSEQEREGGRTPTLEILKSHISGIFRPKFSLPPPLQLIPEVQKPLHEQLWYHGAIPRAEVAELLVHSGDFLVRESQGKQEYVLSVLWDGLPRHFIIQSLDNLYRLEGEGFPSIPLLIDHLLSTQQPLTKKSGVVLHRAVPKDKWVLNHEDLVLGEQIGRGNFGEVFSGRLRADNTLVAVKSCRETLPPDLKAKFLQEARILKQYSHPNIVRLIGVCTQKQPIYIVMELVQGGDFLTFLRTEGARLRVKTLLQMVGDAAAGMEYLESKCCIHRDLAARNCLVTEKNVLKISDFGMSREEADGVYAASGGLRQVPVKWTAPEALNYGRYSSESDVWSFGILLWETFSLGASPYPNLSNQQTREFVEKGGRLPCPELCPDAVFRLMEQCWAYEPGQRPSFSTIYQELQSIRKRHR

Fyn = Fyn (UniProt P06241); assay: as above
Hck = Hck (UniProt P08631); assay: as above
Chain of Hck (P08631 whole entry, looked up): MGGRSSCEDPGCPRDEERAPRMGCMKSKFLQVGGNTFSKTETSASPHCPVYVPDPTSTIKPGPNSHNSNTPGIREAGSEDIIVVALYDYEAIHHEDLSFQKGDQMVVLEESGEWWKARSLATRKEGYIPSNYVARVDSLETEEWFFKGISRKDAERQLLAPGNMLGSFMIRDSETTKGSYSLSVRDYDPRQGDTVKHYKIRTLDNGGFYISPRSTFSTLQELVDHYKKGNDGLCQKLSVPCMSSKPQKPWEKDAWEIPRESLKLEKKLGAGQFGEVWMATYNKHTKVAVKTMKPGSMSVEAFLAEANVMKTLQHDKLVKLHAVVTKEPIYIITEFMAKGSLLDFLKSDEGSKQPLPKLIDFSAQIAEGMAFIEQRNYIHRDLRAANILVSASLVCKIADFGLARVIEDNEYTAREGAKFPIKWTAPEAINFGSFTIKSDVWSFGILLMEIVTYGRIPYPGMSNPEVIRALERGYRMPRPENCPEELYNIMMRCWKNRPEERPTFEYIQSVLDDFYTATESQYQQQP

Jak2 = Jak2 (UniProt O60674); assay: as above
MERTK = MERTK (UniProt Q12866); assay: as above
Chain of MERTK (Q12866 whole entry, looked up): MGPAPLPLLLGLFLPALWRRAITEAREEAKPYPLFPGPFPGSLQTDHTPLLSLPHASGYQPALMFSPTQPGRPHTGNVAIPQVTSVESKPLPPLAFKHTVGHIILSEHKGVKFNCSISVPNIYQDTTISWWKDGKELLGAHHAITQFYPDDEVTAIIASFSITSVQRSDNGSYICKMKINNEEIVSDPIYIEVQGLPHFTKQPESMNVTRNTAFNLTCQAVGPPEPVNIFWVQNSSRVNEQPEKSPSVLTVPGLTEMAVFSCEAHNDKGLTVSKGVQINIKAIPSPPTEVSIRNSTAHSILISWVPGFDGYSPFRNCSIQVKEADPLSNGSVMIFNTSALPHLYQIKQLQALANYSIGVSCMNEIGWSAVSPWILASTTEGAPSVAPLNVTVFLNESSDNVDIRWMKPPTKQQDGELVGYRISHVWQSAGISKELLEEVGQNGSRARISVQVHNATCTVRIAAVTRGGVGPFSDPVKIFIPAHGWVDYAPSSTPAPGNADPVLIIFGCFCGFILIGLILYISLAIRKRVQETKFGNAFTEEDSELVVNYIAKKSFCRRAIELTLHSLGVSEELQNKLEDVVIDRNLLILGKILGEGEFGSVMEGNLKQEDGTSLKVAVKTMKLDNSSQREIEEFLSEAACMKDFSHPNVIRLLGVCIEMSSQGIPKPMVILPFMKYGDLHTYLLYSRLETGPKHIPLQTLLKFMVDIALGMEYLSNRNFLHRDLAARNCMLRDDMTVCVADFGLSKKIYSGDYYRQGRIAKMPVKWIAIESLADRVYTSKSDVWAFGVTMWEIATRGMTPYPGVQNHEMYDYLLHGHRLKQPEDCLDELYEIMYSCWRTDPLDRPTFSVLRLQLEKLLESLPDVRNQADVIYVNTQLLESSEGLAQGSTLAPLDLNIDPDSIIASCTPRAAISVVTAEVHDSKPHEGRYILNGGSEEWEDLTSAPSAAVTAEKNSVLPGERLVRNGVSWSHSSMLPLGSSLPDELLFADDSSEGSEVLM

c-Abl (mouse) = assay: as above
c-Src = assay: as above
Grb2 SH2 = Grb2 SH2 (UniProt P62993); assay: SH2 binding enrichment of the phosphorylated peptide, bacterial display (enrichment ratio); higher = better substrate or ligand; peptides without Tyr show the background
SHP2-C SH2 = assay: as above
c-Src SH2 = assay: as above
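Throughout, for SH2 binding enrichment of the phosphorylated peptide, bacterial display: peptide library displayed on the E. coli surface as eCPX fusions, selected cells deep-sequenced, score is each peptide's frequency after selection divided by its frequency in the input.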
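Throughout, for phosphorylation enrichment, bacterial display: 11-residue human phosphosite peptides and single-mutation variants displayed on the E. coli surface, counted by deep sequencing, each peptide's frequency after selection divided by its frequency in the unselected input library; frequency after pTyr selection over input frequency; kinase dosed for 20-30% of maximal phosphorylation in three min.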

Chain of FGFR1 (P11362 whole entry, looked up): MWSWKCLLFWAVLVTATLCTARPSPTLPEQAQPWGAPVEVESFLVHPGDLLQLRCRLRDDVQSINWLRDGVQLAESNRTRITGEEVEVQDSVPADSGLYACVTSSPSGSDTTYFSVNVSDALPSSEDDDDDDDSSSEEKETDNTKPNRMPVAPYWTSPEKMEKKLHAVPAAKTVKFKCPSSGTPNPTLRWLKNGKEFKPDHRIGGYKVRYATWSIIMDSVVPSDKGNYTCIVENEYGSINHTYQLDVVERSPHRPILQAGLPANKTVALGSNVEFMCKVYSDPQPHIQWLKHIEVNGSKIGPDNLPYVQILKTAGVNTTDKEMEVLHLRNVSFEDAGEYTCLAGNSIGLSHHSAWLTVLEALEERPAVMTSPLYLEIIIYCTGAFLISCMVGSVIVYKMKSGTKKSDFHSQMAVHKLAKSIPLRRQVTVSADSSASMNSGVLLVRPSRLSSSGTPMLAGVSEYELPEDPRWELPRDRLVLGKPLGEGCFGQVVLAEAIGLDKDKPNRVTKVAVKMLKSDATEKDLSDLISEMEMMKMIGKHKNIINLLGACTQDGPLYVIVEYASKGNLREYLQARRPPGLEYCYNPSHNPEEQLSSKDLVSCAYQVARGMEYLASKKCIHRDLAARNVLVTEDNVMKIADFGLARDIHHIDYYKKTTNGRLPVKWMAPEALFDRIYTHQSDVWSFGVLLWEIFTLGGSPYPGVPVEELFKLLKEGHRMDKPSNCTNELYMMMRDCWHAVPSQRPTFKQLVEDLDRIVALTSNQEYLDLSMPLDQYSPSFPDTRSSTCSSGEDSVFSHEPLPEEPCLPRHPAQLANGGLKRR
Chain of EPHB1 (P54762 whole entry, looked up): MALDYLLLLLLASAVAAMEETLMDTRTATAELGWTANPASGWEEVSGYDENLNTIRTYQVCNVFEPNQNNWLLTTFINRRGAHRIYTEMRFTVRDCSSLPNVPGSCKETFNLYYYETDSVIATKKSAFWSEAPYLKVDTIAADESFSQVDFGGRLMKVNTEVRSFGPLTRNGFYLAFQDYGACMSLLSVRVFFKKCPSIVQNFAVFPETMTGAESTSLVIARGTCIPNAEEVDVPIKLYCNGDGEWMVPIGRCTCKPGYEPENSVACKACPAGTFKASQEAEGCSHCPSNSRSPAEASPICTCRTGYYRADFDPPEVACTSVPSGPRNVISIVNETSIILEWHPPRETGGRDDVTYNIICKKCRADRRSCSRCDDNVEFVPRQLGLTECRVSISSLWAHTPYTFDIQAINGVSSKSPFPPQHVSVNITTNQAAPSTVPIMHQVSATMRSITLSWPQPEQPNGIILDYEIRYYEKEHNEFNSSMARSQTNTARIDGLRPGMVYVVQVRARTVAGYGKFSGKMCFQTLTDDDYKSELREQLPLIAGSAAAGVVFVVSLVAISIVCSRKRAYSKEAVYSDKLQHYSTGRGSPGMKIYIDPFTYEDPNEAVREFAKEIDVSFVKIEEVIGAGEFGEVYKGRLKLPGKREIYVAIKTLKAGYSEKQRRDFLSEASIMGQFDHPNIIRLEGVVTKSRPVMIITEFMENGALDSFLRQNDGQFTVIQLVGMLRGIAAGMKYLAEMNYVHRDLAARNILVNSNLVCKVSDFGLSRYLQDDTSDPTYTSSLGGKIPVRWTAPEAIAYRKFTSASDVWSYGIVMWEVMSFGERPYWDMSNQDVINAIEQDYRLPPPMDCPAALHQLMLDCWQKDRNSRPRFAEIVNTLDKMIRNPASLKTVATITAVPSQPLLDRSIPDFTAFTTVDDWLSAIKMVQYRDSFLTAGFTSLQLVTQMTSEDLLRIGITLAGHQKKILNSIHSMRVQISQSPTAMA

| Sequence | SH2 binding enrichment (Grb2 SH2) | SH2 binding enrichment (SHP2-C SH2) | SH2 binding enrichment (c-Src SH2) | phosphorylation enrichment (AncSZ) | phosphorylation enrichment (EPHB1) | phosphorylation enrichment (EPHB2) | phosphorylation enrichment (FGFR1) | phosphorylation enrichment (FGFR3) | phosphorylation enrichment (Fer (mouse)) | phosphorylation enrichment (Fes) | phosphorylation enrichment (Fyn) | phosphorylation enrichment (Hck) | phosphorylation enrichment (Jak2) | phosphorylation enrichment (MERTK) | phosphorylation enrichment (c-Abl (mouse)) | phosphorylation enrichment (c-Src) |
| --- | --- | --- | --- | --- | --- | --- | --- | --- | --- | --- | --- | --- | --- | --- | --- | --- |
| MVTSGYKAKTI [EFR3A_Y447] | 0.748 | 0.744 | 0.44 | 0.413 | 0.337 | 0.312 | 0.299 | 0.375 | 0.314 | 0.458 | 0.361 | 0.322 | 0.364 | 0.377 | 0.42 | 0.292 |
| AFQGKYTPSGQ [ALDOA_Y343_C339Y_YF] | 0.759 | 0.803 | 0.592 | 0.388 | 0.376 | 0.276 | 0.309 | 0.328 | 0.253 | 0.446 | 0.273 | 0.266 | 0.547 | 0.346 | 0.432 | 0.298 |
| RHTRSYDYTEG [FGF7_Y56_M59T] | 0.864 | 0.841 | 1.5 | 0.521 | 0.407 | 0.369 | 0.488 | 0.546 | 0.477 | 0.918 | 0.635 | 0.602 | 0.587 | 0.514 | 0.414 | 0.476 |
| DRFDNYIEKVR [DES_Y122_A120D] | 0.836 | 0.596 | 0.507 | 0.709 | 0.348 | 0.433 | 0.539 | 0.604 | 0.408 | 0.774 | 0.432 | 0.413 | 0.755 | 0.406 | 0.583 | 0.421 |

Further lines, with some results ahead:

| SH2 binding enrichment (Grb2 SH2) | SH2 binding enrichment (SHP2-C SH2) | SH2 binding enrichment (c-Src SH2) | Sequence | phosphorylation enrichment (AncSZ) | phosphorylation enrichment (EPHB1) | phosphorylation enrichment (EPHB2) | phosphorylation enrichment (FGFR1) | phosphorylation enrichment (FGFR3) | phosphorylation enrichment (Fer (mouse)) | phosphorylation enrichment (Fes) | phosphorylation enrichment (Fyn) | phosphorylation enrichment (Hck) | phosphorylation enrichment (Jak2) | phosphorylation enrichment (MERTK) | phosphorylation enrichment (c-Abl (mouse)) | phosphorylation enrichment (c-Src) |
| --- | --- | --- | --- | --- | --- | --- | --- | --- | --- | --- | --- | --- | --- | --- | --- | --- |
| 0.998 | 1.31 | 0.747 | PKSLFYLLLKL [TRPC6_Y775] | 2.5 | 1.04 | 1.89 | 1.12 | 1.48 | 1.51 | 2.82 | 0.31 | 0.716 | 4.8 | 1.54 | 2.62 | 1.74 |
| 0.641 | 0.764 | 0.623 | PVRIAYDRPRG [SUGP2_Y985] | 0.923 | 0.464 | 0.691 | 0.384 | 0.653 | 0.746 | 0.737 | 0.486 | 0.426 | 1.44 | 0.591 | 0.671 | 0.609 |
| 1.29 | 1.09 | 0.565 | WAMLAYNRSKL [WWOX_Y293] | 1.25 | 0.453 | 0.417 | 0.431 | 0.611 | 0.525 | 1.04 | 0.347 | 0.435 | 1.02 | 0.37 | 0.541 | 0.266 |
| 0.745 | 0.659 | 0.513 | GGGGSYNDFGN [HNRNPA1_Y312] | 0.599 | 0.433 | 0.39 | 0.471 | 0.5 | 0.33 | 0.791 | 1.17 | 0.474 | 0.579 | 0.422 | 0.458 | 0.441 |
